Measured values reported in patent US20190352422A1 (PCM TARGETECH, published 2019).

Legend:
human RON receptor [1] = molecular target: T1, human RON receptor (human, UniProt Q04912 25-1400); test: cell-based or functional assay
human RON receptor [2] = molecular target: T1, human RON receptor; test: flow cytometry on HT29 cells, FITC-coupled anti-human IgG1 secondary
Protocol: Colon cancer HT29 cell line expressing ˜19,000 RON molecules per cell were used as the model. Mouse PCM5B14 was used as the positive control. Individual H5B14 clones at different concentrations were incubated with cells followed by addition of FITC-coupled anti-human IgG1 antibody. Fluorescence intensities from individual samples were analyzed using the BD flow cytometer. Results in FIG. 2 are the dose-dependent specific binding of individual H5B14s. […] Results in Table 1 show the individual values reflecting the binding affinity and sensitivity of individual H5B14 clones to human RON receptor.

| Internalization efficacy of cell surface RON (EC50, hours), Breast T-47D (human RON receptor [1]) | Internalization efficacy of cell surface RON (EC50, hours), Colon HT-29 (human RON receptor [1]) | Internalization efficacy of cell surface RON (EC50, hours), Lung H358 (human RON receptor [1]) | Internalization efficacy of cell surface RON (EC50, hours), Pancreatic L3.6p1 (human RON receptor [1]) | EC50 (human RON receptor [2]) | LogEC50 (human RON receptor [2]) | Binder |
| --- | --- | --- | --- | --- | --- | --- |
| 23.5 h | 11 h | 7.47 h | 14.1 h |  |  | Mouse Zt/g4 (antibody, from another filing, V domains shown) VH: EVQLQQSGAELVKPGASVKLSCTTSGFNIIDTYIHWVNQKPDQGLEWIGRIDPADGNRKSDPKFQVKATITVDTSSNTAYLQLSSLTSGDTAVYYCARGYGNLNAMDSWGQGTSVTVSS VL: DIQMNQSPSSLSASLGDTITITCHASQNINVWLNWYQQKPGNIPKLLIYKASNLHTGVPSRFSGSGSGTGFTLTISSLQPEDIATYYCQQGQSYPLTFGGGTKLEIK |
| 8.26 h | 5.33 h | 7.94 h | 8.17 h | 2.22 µg/mL | 0.346 log(µg/ml) | Humanized PCM5B14 H2L4 (IgG1/κ, designated as H5B14) (antibody, V domains shown, also called H5B14H2L4; Humanized 5B14) VH: QVQLVQSGAEVKKPGATVKISCKVSGYTFTDYHMDWVQQAPGKGLEWMGDINPNNGGAIYNQKFKGRVTITADTSTDTAYMELSSLRSEDTAVYYCARSHYDYAGGAWFAYWGQGTLVTVSR VL: EIVMTQSPGTLSLSPGERATLSCKSSQSLLFSGNQKNYLAWYQQKPGQAPRLLIYWASTRASGIPDRFSGSGSGTDFTLTISRLEPEDFAVYYCQQYYSFPRTFGQGTKLEIKR |
